# Values quoted from earlier work in PMC11087511.
# Key:
# [1] = biological target: factor Xa within prothrombinase (Homo sapiens) (UniProt P00742); conditions: cited from earlier work
# factor Xa (Homo sapiens) = factor Xa (Homo sapiens) (UniProt P00742); conditions: cited from earlier work
# Chain of factor Xa (Homo sapiens) (P00742 235-488): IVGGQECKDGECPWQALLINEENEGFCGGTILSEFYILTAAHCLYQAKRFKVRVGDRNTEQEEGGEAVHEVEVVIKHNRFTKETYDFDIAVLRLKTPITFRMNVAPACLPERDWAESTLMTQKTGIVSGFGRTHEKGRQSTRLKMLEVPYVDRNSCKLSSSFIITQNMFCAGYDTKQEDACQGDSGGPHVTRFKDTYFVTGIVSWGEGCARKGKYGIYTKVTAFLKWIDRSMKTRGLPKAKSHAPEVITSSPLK
# Chain of Tick anticoagulant peptide (TAP) (P17726 whole entry): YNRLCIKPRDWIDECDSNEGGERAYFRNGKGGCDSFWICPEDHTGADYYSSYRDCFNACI
# Chain of factor Xa within prothrombinase (Homo sapiens) (P00742 41-179, chain 1 of 2): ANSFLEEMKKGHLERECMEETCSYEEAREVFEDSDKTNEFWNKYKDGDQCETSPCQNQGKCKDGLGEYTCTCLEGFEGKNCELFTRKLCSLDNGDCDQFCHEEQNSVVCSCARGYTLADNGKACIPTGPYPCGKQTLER
# Chain of factor Xa within prothrombinase (Homo sapiens) (P00742 235-488, chain 2 of 2): as the sequence (P00742 235-488) above
substance,measurement,setting,value
Tick anticoagulant peptide (TAP) (from UniProt P17726),Ki,[1],0.0053 nM
same,Ki,factor Xa (Homo sapiens),0.18 nM
